Data published in US10093706.
Read-outs that look alike come from different tables or passages of the source.

What was measured:
[1] = target: hnRNP-E1 (PCBP1) wild-type (Homo sapiens) (UniProt Q15365); settings: Scatchard
[2] = target: hnRNP-E1(C293S) (Homo sapiens) (UniProt Q15365); settings: no L-homocysteine; Scatchard
[3] = target: hnRNP-E1(G292A) G292A (Homo sapiens) (UniProt Q15365); settings: no L-homocysteine; Scatchard
Chain of hnRNP-E1(G292A) G292A (Homo sapiens) (Q15365 whole entry A205V/G292A): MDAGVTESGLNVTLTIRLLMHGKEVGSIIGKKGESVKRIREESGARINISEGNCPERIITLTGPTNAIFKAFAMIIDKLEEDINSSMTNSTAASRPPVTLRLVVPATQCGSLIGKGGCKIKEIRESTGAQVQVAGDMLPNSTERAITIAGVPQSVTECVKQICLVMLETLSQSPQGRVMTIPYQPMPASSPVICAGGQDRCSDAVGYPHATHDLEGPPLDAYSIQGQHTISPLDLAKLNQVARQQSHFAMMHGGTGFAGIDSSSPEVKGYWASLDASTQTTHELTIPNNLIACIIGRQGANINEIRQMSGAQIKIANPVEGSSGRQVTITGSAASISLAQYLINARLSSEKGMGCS

Chain of hnRNP-E1 (PCBP1) wild-type (Homo sapiens) (Q15365 whole entry A205V): as the sequence (Q15365 whole entry A205V/G292A) above, with A292G counted along it
Chain of hnRNP-E1(C293S) (Homo sapiens) (Q15365 whole entry A205V/C293S): as the sequence (Q15365 whole entry A205V/G292A) above, with A292G, C293S counted along it

18-nt folate receptor-alpha mRNA cis-element
Kd ([1]; 10 uM L-homocysteine): 890 pM | Kd ([1]; 50 uM L-homocysteine): 470 pM | Kd ([1]; no L-homocysteine): 1470 pM | Kd [2]: 270 pM | Kd [3]: 1570 pM
